Test results reported in the supplement of paper PMC7125110.
± gives the standard error. For some of these results: Fewer inactive variants are shown than the library holds.

B1: glmS ribozyme (parent)
chain: AUAAAAGCGCCAGAACUACAGAAAUGUAGUUGACGAGGAGGAGGUUUAUCGAAUUUUCGGCGGAUGCCUCCAAA

Tests used:
Details in all cases: with glucosamine-6-phosphate
[1] = variants of: B1; test: kcat; higher = faster cleavage; RNA array
Method in brief: (§1)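 Tiles bearing barcoded ribozyme variants, transcribed in situ by E. coli RNA polymerase on sequenced MiSeq chips, were imaged over ~14 h at 37 °C using a hybridised Cy3 probe. Glucosamine-6-phosphate was supplied at 40 μM to 10 mM in HEPES/KCl/Mg(OAc)2 buffer. kobs came from one- or two-exponential decay fits to normalised per-tile medians, and weighted Michaelis–Menten fits then provided kcat and KM.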

[2] = variants of: B1; test: KM; higher = weaker cofactor use; RNA array
Method in brief: as §1

[3] = variants of: B1; test: self-cleavage kobs at 40 uM GlcN6P; higher = faster cleavage; RNA array
Method in brief: as §1

[4] = variants of: B1; test: self-cleavage kobs at 160 uM GlcN6P; higher = faster cleavage; RNA array
Method in brief: as §1

[5] = variants of: B1; test: self-cleavage kobs at 640 uM GlcN6P; higher = faster cleavage; RNA array
Method in brief: as §1

[6] = variants of: B1; test: self-cleavage kobs at 2500 uM GlcN6P; higher = faster cleavage; RNA array
Method in brief: as §1

[7] = variants of: B1; test: self-cleavage kobs at 10000 uM GlcN6P; higher = faster cleavage; RNA array
Method in brief: as §1

AUAAAAGCGCCCGAACUACAGAAAUGUAGUUGACGAGGAGGAGGUUUAUCGAAUUUUCGGCGGAUGACUCCAAA
kcat [1]: 0.00471 ± 0.0013 s⁻¹ | KM [2]: 1180 ± 470 µM | self-cleavage kobs at 40 uM GlcN6P [3]: 0.000204 ± 1.9e-05 s⁻¹ | self-cleavage kobs at 160 uM GlcN6P [4]: 0.000456 ± 7.2e-05 s⁻¹ | self-cleavage kobs at 640 uM GlcN6P [5]: 0.00125 ± 0.0002 s⁻¹ | self-cleavage kobs at 2500 uM GlcN6P [6]: 0.0034 ± 0.00084 s⁻¹ | self-cleavage kobs at 10000 uM GlcN6P [7]: 0.00467 ± 0.00054 s⁻¹

AUAAAAGCGCCCGAACUACAGAAAUGUAGUUGACGAGGAGGAGGUUUAUCGAAUUUUCGACGGAUGCCUCCAAA
kcat [1]: < 1e-05 s⁻¹ | self-cleavage kobs at 160 uM GlcN6P [4]: < 1e-05 s⁻¹ | self-cleavage kobs at 640 uM GlcN6P [5]: < 1e-05 s⁻¹

AUAAAAGCGCCCGAACUACAGAAAUGUAGUUGACGAGGAGGUGGUUUAUCGAAUUUUCGGCGGAUGCCUCCAAA
kcat [1]: 0.000217 ± 1.2e-05 s⁻¹ | KM [2]: 1230 ± 230 µM | self-cleavage kobs at 160 uM GlcN6P [4]: 3.19e-05 ± 1e-05 s⁻¹ | self-cleavage kobs at 640 uM GlcN6P [5]: 6.67e-05 ± 1.1e-05 s⁻¹ | self-cleavage kobs at 2500 uM GlcN6P [6]: 0.00016 ± 2.1e-05 s⁻¹ | self-cleavage kobs at 10000 uM GlcN6P [7]: 0.000192 ± 1.2e-05 s⁻¹

AUAAAAGCGCCCGAACUACAGAAAUGUAGUUGACGAGGAGGGGGUUUAUCGAAUUUUCGGCGGAUGCCUCCAAA
kcat [1]: 0.0188 ± 0.0076 s⁻¹ | self-cleavage kobs at 40 uM GlcN6P [3]: 0.00118 ± 0.00019 s⁻¹ | self-cleavage kobs at 160 uM GlcN6P [4]: 0.00222 ± 0.00053 s⁻¹ | self-cleavage kobs at 640 uM GlcN6P [5]: 0.00579 ± 0.0016 s⁻¹ | self-cleavage kobs at 2500 uM GlcN6P [6]: 0.0085 ± 0.0026 s⁻¹ | self-cleavage kobs at 10000 uM GlcN6P [7]: 0.0248 ± 0.0036 s⁻¹

AUAAAAGCGCCCGAACUACAGAAAUGUAGUUGACGAGGAGGAGGUUUAUCGAAUUUUCGGCGGCUGCCUCCAAA
kcat [1]: 0.000233 ± 1.8e-05 s⁻¹ | KM [2]: 4850 ± 770 µM | self-cleavage kobs at 2500 uM GlcN6P [6]: 8.34e-05 ± 1.5e-05 s⁻¹ | self-cleavage kobs at 10000 uM GlcN6P [7]: 0.000156 ± 2e-05 s⁻¹

AUAAAAGCGCCCGAACUACAGAAAUGUAGUUGACGAGGAGGAGGUCUAUCGAAUUUUCGGCGGAUGCCUCCAAA
kcat [1]: 0.00298 ± 0.0008 s⁻¹ | KM [2]: 1680 ± 590 µM | self-cleavage kobs at 40 uM GlcN6P [3]: 7.98e-05 ± 1.5e-05 s⁻¹ | self-cleavage kobs at 160 uM GlcN6P [4]: 0.000265 ± 5.1e-05 s⁻¹ | self-cleavage kobs at 640 uM GlcN6P [5]: 0.000606 ± 0.00017 s⁻¹ | self-cleavage kobs at 2500 uM GlcN6P [6]: 0.00273 ± 0.00089 s⁻¹ | self-cleavage kobs at 10000 uM GlcN6P [7]: 0.0026 ± 0.00058 s⁻¹

AUAAAAGCGCCCGAACUACAGAAAUGUAGUUGACGAGGAGGAGGUUUAUCGAAUUUUCGGCGGAUGCCUGCAAA
kcat [1]: 0.000232 ± 6.8e-05 s⁻¹ | self-cleavage kobs at 160 uM GlcN6P [4]: 7.74e-05 ± 1.7e-05 s⁻¹ | self-cleavage kobs at 640 uM GlcN6P [5]: 0.000119 ± 1.1e-05 s⁻¹ | self-cleavage kobs at 2500 uM GlcN6P [6]: 0.000154 ± 1.8e-05 s⁻¹ | self-cleavage kobs at 10000 uM GlcN6P [7]: 0.000352 ± 4.1e-05 s⁻¹

AUAAAAGCGCCCGAACUACAGAAAUGUAGUUGACGAGGAGGAGGUUUAUCGAAUUUUCGGCGGAUGCCUACAAA
kcat [1]: 0.000198 ± 2.9e-05 s⁻¹ | KM [2]: 1030 ± 390 µM | self-cleavage kobs at 640 uM GlcN6P [5]: 6.98e-05 ± 1e-05 s⁻¹ | self-cleavage kobs at 2500 uM GlcN6P [6]: 0.000174 ± 1.9e-05 s⁻¹ | self-cleavage kobs at 10000 uM GlcN6P [7]: 0.000162 ± 2e-05 s⁻¹

AUAAAAGCGCCCGAACUACAGAAAUGUAGUAGACGAGGAGGAGGUUUAUCGAAUUUUCGGCGGAUGCCUCCAAA
kcat [1]: 0.0133 ± 0.004 s⁻¹ | KM [2]: 4520 ± 1700 µM | self-cleavage kobs at 40 uM GlcN6P [3]: 0.000142 ± 1.7e-05 s⁻¹ | self-cleavage kobs at 160 uM GlcN6P [4]: 0.000363 ± 7.2e-05 s⁻¹ | self-cleavage kobs at 640 uM GlcN6P [5]: 0.00151 ± 0.00035 s⁻¹ | self-cleavage kobs at 2500 uM GlcN6P [6]: 0.00434 ± 0.00085 s⁻¹ | self-cleavage kobs at 10000 uM GlcN6P [7]: 0.00974 ± 0.0017 s⁻¹

AUAAAAGCGCCCGAACUACAGAAAUGUAGUUGACGAGGAGGAGGUUUAUCGAAGUUUCGGCGGAUGCCUCCAAA
kcat [1]: 0.0218 ± 0.01 s⁻¹ | self-cleavage kobs at 40 uM GlcN6P [3]: 0.000492 ± 7.4e-05 s⁻¹ | self-cleavage kobs at 160 uM GlcN6P [4]: 0.0011 ± 0.00016 s⁻¹ | self-cleavage kobs at 640 uM GlcN6P [5]: 0.00452 ± 0.00083 s⁻¹ | self-cleavage kobs at 2500 uM GlcN6P [6]: 0.0102 ± 0.0016 s⁻¹ | self-cleavage kobs at 10000 uM GlcN6P [7]: 0.0271 ± 0.0095 s⁻¹

AUAAAAGCGCCCGAACUACAGAAAUGUAGUUGACGAGGAGGAGGAUUAUCGAAUUUUCGGCGGUUGCCUCCAAA
kcat [1]: 0.00036 ± 8.2e-05 s⁻¹ | KM [2]: 5800 ± 2500 µM | self-cleavage kobs at 640 uM GlcN6P [5]: 2.84e-05 ± 1.2e-05 s⁻¹ | self-cleavage kobs at 2500 uM GlcN6P [6]: 0.000134 ± 3.1e-05 s⁻¹ | self-cleavage kobs at 10000 uM GlcN6P [7]: 0.000223 ± 3.2e-05 s⁻¹

AUAAAAGCGCCCGAACUACAGAAAUGUAGUUGACGAGGAGGAUGUUUAUCGAAUUUUCGGCGGAUGCCUCCAAA
kcat [1]: 5.32e-05 ± 9.5e-07 s⁻¹ | KM [2]: 1200 ± 86 µM | self-cleavage kobs at 2500 uM GlcN6P [6]: 3.6e-05 ± 8e-06 s⁻¹ | self-cleavage kobs at 10000 uM GlcN6P [7]: 4.74e-05 ± 9.2e-06 s⁻¹

AUAAAAGCGCCCGAACUACAGAAAUGUAGUUGACGAGGAGGAGGUUUAUCGAAUUUUCGGCGGAUUCCUUCAAA
kcat [1]: 0.00136 ± 0.00036 s⁻¹ | KM [2]: 1190 ± 570 µM | self-cleavage kobs at 40 uM GlcN6P [3]: 3.71e-05 ± 1.5e-05 s⁻¹ | self-cleavage kobs at 640 uM GlcN6P [5]: 0.000496 ± 0.00012 s⁻¹ | self-cleavage kobs at 2500 uM GlcN6P [6]: 0.00128 ± 0.00028 s⁻¹ | self-cleavage kobs at 10000 uM GlcN6P [7]: 0.000992 ± 0.00028 s⁻¹

AUAAAAGCGCCCGAACUACAGAAAUGUAGUUGACGAGGAGGAGGUUUAGCGAAUUUUCGGCGGAUGCCUCCAAA
kcat [1]: 0.000332 ± 1.7e-05 s⁻¹ | KM [2]: 1730 ± 210 µM | self-cleavage kobs at 640 uM GlcN6P [5]: 8.81e-05 ± 2e-05 s⁻¹ | self-cleavage kobs at 2500 uM GlcN6P [6]: 0.000216 ± 9.7e-05 s⁻¹ | self-cleavage kobs at 10000 uM GlcN6P [7]: 0.000282 ± 4e-05 s⁻¹
